In this experiment the target is human XLF/Cernunnos (1–233), tag-free (cleaved XLF441) (human, UniProt Q9H9Q4 1-233). The experiment in a line: SPR.
Chain of human XLF/Cernunnos (1–233), tag-free (cleaved XLF441) (Q9H9Q4 1-233): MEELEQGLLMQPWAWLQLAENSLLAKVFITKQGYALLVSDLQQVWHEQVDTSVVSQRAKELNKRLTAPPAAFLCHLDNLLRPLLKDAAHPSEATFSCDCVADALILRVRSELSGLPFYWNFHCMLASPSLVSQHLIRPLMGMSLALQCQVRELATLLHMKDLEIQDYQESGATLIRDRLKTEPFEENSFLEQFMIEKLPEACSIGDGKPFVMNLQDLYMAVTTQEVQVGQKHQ

B1: XRCC4 (1–213) with N-terminal His6 tag (domain or fragment, UniProt Q13426 1-213, looked up)
chain: MERKISRIHLVSEPSITHFLQVSWEKTLESGFVITLTDGHSAWTGTVSESEISQEADDMAMEKGKYVGELRKALLSGAGPADVYTFNFSKESCYFFFEKNLKDVSFRLGSFNLEKVENPAEVIRELICYCLDTIAENQAKNEHLQKENERLLRDWNDVQGRFEKCVSAKEALETDLYKRFILVLNEKKTKIRSLHNKLLNAAQEREKDIKQEG
For B1, the Kd turned out to be 7.8 µM. This lies in the single-digit micromolar range.
